Test results published in patent publication US20210388087A1 (Chugai, published 2021).

Target: T1, CD3 epsilon homodimer protein (UniProt P07766 23-126)
T1 construct: also called CD3 (CD3 epsilon)
Assay: SPR Biacore T200, CD3e homodimer on chip, vs unaltered GLS3000 antibody
Experimental: An appropriate amount of CD3 epsilon homodimer protein was immobilized onto Sensor chip CM4 (GE Healthcare Japan Corp.) by the amine coupling method. Then, the antibody having an appropriate concentration was injected thereto as an analyte and allowed to interact with the CD3 epsilon homodimer protein on the sensor chip. Then, the sensor chip was regenerated by the injection of 10 mmol/L glycine-HCl (pH 1.5). The assay was conducted at 25 degrees C., and HBS-EP+(GE Healthcare Japan Corp.) was used as a running buffer. […] Each parameter was calculated using Biacore T200 Evaluation Software (GE Healthcare Japan Corp.).

T1 sequence (P07766 23-126): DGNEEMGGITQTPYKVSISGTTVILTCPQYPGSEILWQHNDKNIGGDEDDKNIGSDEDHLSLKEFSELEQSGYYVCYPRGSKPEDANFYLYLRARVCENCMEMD

| Binder | ratio of amounts bound (Z=Y/X) |
| --- | --- |
| GLS3000 H34Q (antibody, name in Kabat numbering, V domains shown, one-arm IgG as m2) VH: QVQLVESGGGVVQPGRSLRLSCAASGFTFSNAWMHWVRQAPGKGLEWVAQIKAKSNNYATYYAESVKGRFTISRDDSKNSLYLQMNSLKTEDTAVYYCRYVHYGAYYGVDAWGQGTTVTVSS VL: DIVMTQSPLSLPVTPGEPASISCRSSQSLVHSNRNTYLQWYQQKPGQAPRLLIYKVSNRFSGVPDRFSGSGSGTDFTLKISRVEAEDVGVYYCGQGTQVPYTFGQGTKLEIK | 0.25 |
| GLS3000 H34V (antibody, name in Kabat numbering, V domains shown, one-arm IgG as m2) VH: QVQLVESGGGVVQPGRSLRLSCAASGFTFSNAWMHWVRQAPGKGLEWVAQIKAKSNNYATYYAESVKGRFTISRDDSKNSLYLQMNSLKTEDTAVYYCRYVHYGAYYGVDAWGQGTTVTVSS VL: DIVMTQSPLSLPVTPGEPASISCRSSQSLVHSNRNTYLVWYQQKPGQAPRLLIYKVSNRFSGVPDRFSGSGSGTDFTLKISRVEAEDVGVYYCGQGTQVPYTFGQGTKLEIK | 0.85 |
| GLS3000 K50D (antibody, name in Kabat numbering, V domains shown, one-arm IgG as m2) VH: QVQLVESGGGVVQPGRSLRLSCAASGFTFSNAWMHWVRQAPGKGLEWVAQIKAKSNNYATYYAESVKGRFTISRDDSKNSLYLQMNSLKTEDTAVYYCRYVHYGAYYGVDAWGQGTTVTVSS VL: DIVMTQSPLSLPVTPGEPASISCRSSQSLVHSNRNTYLHWYQQKPGQAPRLLIYDVSNRFSGVPDRFSGSGSGTDFTLKISRVEAEDVGVYYCGQGTQVPYTFGQGTKLEIK | 0.22 |
| GLS3000 H34T (antibody, name in Kabat numbering, V domains shown, one-arm IgG as m2) VH: QVQLVESGGGVVQPGRSLRLSCAASGFTFSNAWMHWVRQAPGKGLEWVAQIKAKSNNYATYYAESVKGRFTISRDDSKNSLYLQMNSLKTEDTAVYYCRYVHYGAYYGVDAWGQGTTVTVSS VL: DIVMTQSPLSLPVTPGEPASISCRSSQSLVHSNRNTYLTWYQQKPGQAPRLLIYKVSNRFSGVPDRFSGSGSGTDFTLKISRVEAEDVGVYYCGQGTQVPYTFGQGTKLEIK | 0.89 |
| GLS3000 K50Q (antibody, name in Kabat numbering, V domains shown, one-arm IgG as m2) VH: QVQLVESGGGVVQPGRSLRLSCAASGFTFSNAWMHWVRQAPGKGLEWVAQIKAKSNNYATYYAESVKGRFTISRDDSKNSLYLQMNSLKTEDTAVYYCRYVHYGAYYGVDAWGQGTTVTVSS VL: DIVMTQSPLSLPVTPGEPASISCRSSQSLVHSNRNTYLHWYQQKPGQAPRLLIYQVSNRFSGVPDRFSGSGSGTDFTLKISRVEAEDVGVYYCGQGTQVPYTFGQGTKLEIK | 0.18 |
| GLS3000 H34Y (antibody, name in Kabat numbering, V domains shown, one-arm IgG as m2) VH: QVQLVESGGGVVQPGRSLRLSCAASGFTFSNAWMHWVRQAPGKGLEWVAQIKAKSNNYATYYAESVKGRFTISRDDSKNSLYLQMNSLKTEDTAVYYCRYVHYGAYYGVDAWGQGTTVTVSS VL: DIVMTQSPLSLPVTPGEPASISCRSSQSLVHSNRNTYLYWYQQKPGQAPRLLIYKVSNRFSGVPDRFSGSGSGTDFTLKISRVEAEDVGVYYCGQGTQVPYTFGQGTKLEIK | 0.59 |
| GLS3000 K50A (antibody, name in Kabat numbering, V domains shown, one-arm IgG as m2) VH: QVQLVESGGGVVQPGRSLRLSCAASGFTFSNAWMHWVRQAPGKGLEWVAQIKAKSNNYATYYAESVKGRFTISRDDSKNSLYLQMNSLKTEDTAVYYCRYVHYGAYYGVDAWGQGTTVTVSS VL: DIVMTQSPLSLPVTPGEPASISCRSSQSLVHSNRNTYLHWYQQKPGQAPRLLIYAVSNRFSGVPDRFSGSGSGTDFTLKISRVEAEDVGVYYCGQGTQVPYTFGQGTKLEIK | 0.23 |
| GLS3000 H34R (antibody, name in Kabat numbering, V domains shown, one-arm IgG as m2) VH: QVQLVESGGGVVQPGRSLRLSCAASGFTFSNAWMHWVRQAPGKGLEWVAQIKAKSNNYATYYAESVKGRFTISRDDSKNSLYLQMNSLKTEDTAVYYCRYVHYGAYYGVDAWGQGTTVTVSS VL: DIVMTQSPLSLPVTPGEPASISCRSSQSLVHSNRNTYLRWYQQKPGQAPRLLIYKVSNRFSGVPDRFSGSGSGTDFTLKISRVEAEDVGVYYCGQGTQVPYTFGQGTKLEIK | 0.2 |
| GLS3000 K50E (antibody, name in Kabat numbering, V domains shown, one-arm IgG as m2) VH: QVQLVESGGGVVQPGRSLRLSCAASGFTFSNAWMHWVRQAPGKGLEWVAQIKAKSNNYATYYAESVKGRFTISRDDSKNSLYLQMNSLKTEDTAVYYCRYVHYGAYYGVDAWGQGTTVTVSS VL: DIVMTQSPLSLPVTPGEPASISCRSSQSLVHSNRNTYLHWYQQKPGQAPRLLIYEVSNRFSGVPDRFSGSGSGTDFTLKISRVEAEDVGVYYCGQGTQVPYTFGQGTKLEIK | 0.24 |
| GLS3000 H34W (antibody, name in Kabat numbering, V domains shown, one-arm IgG as m2) VH: QVQLVESGGGVVQPGRSLRLSCAASGFTFSNAWMHWVRQAPGKGLEWVAQIKAKSNNYATYYAESVKGRFTISRDDSKNSLYLQMNSLKTEDTAVYYCRYVHYGAYYGVDAWGQGTTVTVSS VL: DIVMTQSPLSLPVTPGEPASISCRSSQSLVHSNRNTYLWWYQQKPGQAPRLLIYKVSNRFSGVPDRFSGSGSGTDFTLKISRVEAEDVGVYYCGQGTQVPYTFGQGTKLEIK | 0.24 |
| GLS3000 K50R (antibody, name in Kabat numbering, V domains shown, one-arm IgG as m2) VH: QVQLVESGGGVVQPGRSLRLSCAASGFTFSNAWMHWVRQAPGKGLEWVAQIKAKSNNYATYYAESVKGRFTISRDDSKNSLYLQMNSLKTEDTAVYYCRYVHYGAYYGVDAWGQGTTVTVSS VL: DIVMTQSPLSLPVTPGEPASISCRSSQSLVHSNRNTYLHWYQQKPGQAPRLLIYRVSNRFSGVPDRFSGSGSGTDFTLKISRVEAEDVGVYYCGQGTQVPYTFGQGTKLEIK | 0.5 |
| GLS3000 K50P (antibody, name in Kabat numbering, V domains shown, one-arm IgG as m2) VH: QVQLVESGGGVVQPGRSLRLSCAASGFTFSNAWMHWVRQAPGKGLEWVAQIKAKSNNYATYYAESVKGRFTISRDDSKNSLYLQMNSLKTEDTAVYYCRYVHYGAYYGVDAWGQGTTVTVSS VL: DIVMTQSPLSLPVTPGEPASISCRSSQSLVHSNRNTYLHWYQQKPGQAPRLLIYPVSNRFSGVPDRFSGSGSGTDFTLKISRVEAEDVGVYYCGQGTQVPYTFGQGTKLEIK | 0.3 |
| GLS3000 K50G (antibody, name in Kabat numbering, V domains shown, one-arm IgG as m2) VH: QVQLVESGGGVVQPGRSLRLSCAASGFTFSNAWMHWVRQAPGKGLEWVAQIKAKSNNYATYYAESVKGRFTISRDDSKNSLYLQMNSLKTEDTAVYYCRYVHYGAYYGVDAWGQGTTVTVSS VL: DIVMTQSPLSLPVTPGEPASISCRSSQSLVHSNRNTYLHWYQQKPGQAPRLLIYGVSNRFSGVPDRFSGSGSGTDFTLKISRVEAEDVGVYYCGQGTQVPYTFGQGTKLEIK | 0.16 |
| GLS3000 H34S (antibody, name in Kabat numbering, V domains shown, one-arm IgG as m2) VH: QVQLVESGGGVVQPGRSLRLSCAASGFTFSNAWMHWVRQAPGKGLEWVAQIKAKSNNYATYYAESVKGRFTISRDDSKNSLYLQMNSLKTEDTAVYYCRYVHYGAYYGVDAWGQGTTVTVSS VL: DIVMTQSPLSLPVTPGEPASISCRSSQSLVHSNRNTYLSWYQQKPGQAPRLLIYKVSNRFSGVPDRFSGSGSGTDFTLKISRVEAEDVGVYYCGQGTQVPYTFGQGTKLEIK | 0.78 |
| GLS3000 K50L (antibody, name in Kabat numbering, V domains shown, one-arm IgG as m2) VH: QVQLVESGGGVVQPGRSLRLSCAASGFTFSNAWMHWVRQAPGKGLEWVAQIKAKSNNYATYYAESVKGRFTISRDDSKNSLYLQMNSLKTEDTAVYYCRYVHYGAYYGVDAWGQGTTVTVSS VL: DIVMTQSPLSLPVTPGEPASISCRSSQSLVHSNRNTYLHWYQQKPGQAPRLLIYLVSNRFSGVPDRFSGSGSGTDFTLKISRVEAEDVGVYYCGQGTQVPYTFGQGTKLEIK | 0.24 |
